Results from PMC6938032 (2020).

T1: Neutrophil elastase (Homo sapiens, UniProt P08246)
T1 chain: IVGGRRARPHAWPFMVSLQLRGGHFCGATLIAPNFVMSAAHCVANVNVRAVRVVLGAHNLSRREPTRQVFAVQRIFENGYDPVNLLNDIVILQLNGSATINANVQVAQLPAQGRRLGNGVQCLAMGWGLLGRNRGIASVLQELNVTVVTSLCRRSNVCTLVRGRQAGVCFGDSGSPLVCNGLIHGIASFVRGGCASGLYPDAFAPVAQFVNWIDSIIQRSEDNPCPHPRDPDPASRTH

B1: EapH2 (protein)
chain: AEKDKLPATQKAKEMQNVPYTIAVDGIMAFNQSYLNLPKDSQLSYLDLGNKVKALLYDERGVTPEKIRNAKSAVYTITWKDGSKKEVDLKKDSYTANLFDSNSIKQIDINVKTK

Key:
[1] = biological target: Neutrophil elastase (Homo sapiens) (UniProt P08246); test: progress curve inhibition analysis; conditions: cited from earlier work
Neutrophil elastase [2] = biological target: T1, Neutrophil elastase; test: progress curve inhibition analysis
Neutrophil elastase [3] = biological target: T1, Neutrophil elastase; test: SPR

Row | Molecule | Ki [1] [nM] | Ki (Neutrophil elastase [2]) [nM] | Kd (Neutrophil elastase [3]) [nM]
1 | EapH1 (from UniProt A0A0H3KEC5) | 0.021 |  | 
2 | B1 |  | 2.11 | 2.16
